The record followed here is patent US20220204583A1.

The assay addresses recombinant transferrin receptor ectodomain (UniProt Q62351). In words: competition: 8D3 pre-incubated with 2 µM soluble rTfR ectodomain, then binding to live bEnd.3 cells at 4° C., IRDye detection.

recombinant transferrin receptor ectodomain, sequence (Q62351 89-763 limits assumed): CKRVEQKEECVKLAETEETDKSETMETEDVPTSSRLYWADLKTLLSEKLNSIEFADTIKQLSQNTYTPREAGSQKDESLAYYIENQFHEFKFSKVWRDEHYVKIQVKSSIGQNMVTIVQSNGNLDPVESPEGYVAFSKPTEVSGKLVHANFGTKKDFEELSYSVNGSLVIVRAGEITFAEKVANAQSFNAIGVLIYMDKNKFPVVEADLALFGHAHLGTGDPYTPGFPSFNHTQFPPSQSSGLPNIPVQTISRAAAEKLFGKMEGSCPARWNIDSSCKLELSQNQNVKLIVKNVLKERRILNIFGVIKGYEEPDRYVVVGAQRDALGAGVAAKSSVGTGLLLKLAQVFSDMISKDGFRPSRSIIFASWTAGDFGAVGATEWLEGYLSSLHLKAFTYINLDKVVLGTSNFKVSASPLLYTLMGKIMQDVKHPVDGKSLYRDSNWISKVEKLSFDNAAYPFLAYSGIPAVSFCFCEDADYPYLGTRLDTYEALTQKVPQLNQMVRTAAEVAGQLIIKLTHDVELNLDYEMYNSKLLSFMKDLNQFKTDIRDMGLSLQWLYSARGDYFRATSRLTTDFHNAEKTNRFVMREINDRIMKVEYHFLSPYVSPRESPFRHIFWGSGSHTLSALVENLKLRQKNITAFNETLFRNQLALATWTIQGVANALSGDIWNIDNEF

B1: anti-transferrin receptor antibody (8D3) (antibody, from another filing, V domains shown)
VH: EVQLVESGGGLVQPGNSLTLSCVASGFTFSNYGMHWIRQAPKKGLEWIAMIYYDSSKMNYADTVKGRFTISRDNSKNTLYLEMNSLRSEDTAMYYCAVPTSHYVVDVWGQGVSVTVSS
VL: DIQMTQSPASLSASLEEIVTITCQASQDIGNWLAWYQQKPGKSPQLLIYGATSLADGVPSRFSGSRSGTQFSLKISRVQVEDIGIYYCLQAYNTPWTFGGGTKLELK
As for B1, the MBEC binding signal with rTfR competition, percent of the non-competition signal worked out at 20%.
